The nanobody polyreactivity screen of Harvey et al. (2022)

Assay: yeast display, Sf9 membrane polyspecificity reagent, FACS + sequencing; frameworks hold sequencing errors
Method in brief: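 A nanobody's polyreactivity label depends on the gate it was sorted from. Yeast display cells were stained with 10% biotinylated, detergent-solubilized Sf9 membrane reagent for 1 hour at 4 °C, enriched on streptavidin microbeads and sorted by FACS. The low and high (top ~1%) gates were set on anti-HA fluorescence for expression and streptavidin fluorescence for reagent binding.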

Sequence	polyreactivity (PSR sort gate)
QVQLVESGGGLVQAGGSLRLSCAASGLTFIGYVMGWYRQAPGKERELVAAISGSGGSTYYADSVKGRFTISRDNAKNTVYLQMNSLKPEDTAVYYCAARSRVLTRYDYWGQGTQVTVSS	high polyreactivity
QVQLVESGGGLVQAGGSLRLSCAASGSTFKRYTMGWYRQAPGKERELVARISWGGSTTYYAYSVKGRFTISRDNAKNTVYLQMNSLKPEDTAVYYCAASWSWYGNRGTYRYPPRYDYWGQGTQVTVSS	high polyreactivity
QVQLVESGGGLVQAGGSLRLSCAASGSIFGENAMGWYRQAPGKERELVAAITWSGASTYYADSVKGRFTISRDNAKNTVYLQMNSLKPEDTAVYYCNADRYVRYSTFDYWGQGTQVTVSS	high polyreactivity
QVQLVESGGCIVQAGGSLRLSCAASGRIFKLYAMGWYRQAPGKERELVAAITTSGGSTYYADSVKGRFTISRDNAKNTVSLEMNSLIPEDTAGYYCNARAVRYPFTGNYWGQGTQVTVSS	high polyreactivity
QVQLVESGGGLVQAGGSLRLSCAASGRIFGFYAMGWYRQAPGKERELVADINWSATSTYYADSVKGRFTISRDNAKNTVYLQMNSLKPEDTAVYYCAADVSYRYYWGQVTQVTVSS	low polyreactivity
QVQLVESGGGLVQAGGSLRLSCAASGFTFHGYAMGWYRQAPGKERELVAAISSSGGRTYYADSVKGRFTISRDNAKNTVYLQMNSLKPEDPEVYYCAAKARGIYVPDGGYWGQGTQVTVSS	high polyreactivity
QVQLVESGGGLVQAGGSLRLSCAASGSIFYFYAMGWYRQAPGKERELVAAISFSGTRTYYADSVKGRFTISRDNAKNTVYLQRNSLKPEDTAVYYCNAVAYNYPRTYDYWGPGTQVTVSS	high polyreactivity
QVQLVESGGGLVQAGGSLRLSCAASGRIFNRYTMGWYRQAPGKERELGAAISKSGGSTYYADSVKGRFTISRDNAKNTVYVQMNSLKPEDTAVYDCAAPPRLYRWHGGDYWGQGTQVTVSS	high polyreactivity
QVQLVESGGGLVQAGGSLRLSCAASGRTLENYAMGWSRQAPGKERELVATINGRSGNTYYADSVKGRFTLSRDNAKNTVYLQMNSLKPEDTAVYYCNAYYEGYYTVGYDYWGQGTQVTVSS	high polyreactivity
QVQLVESGGGLVQAGGSLRLSCAASGRTFWGYAMGWYRQAPGKERELVATISSTGSTNYADSVKGRFTISRDNAKNPVYLQMNSLKPEDTAVYYCNAKRHLYRGWYQRYDYWGQGTQVTVSS	high polyreactivity
QVQLVESGGGLFQAGGSLRLRCAATGLIFDLYAMGWYRQAPGKERELVAVISYDGGSTYYADSVKGRFTISRDNAKNTVYLQMNSLKPEETAVYYCNTFDGLVSPSDLYDYWGQGTQVTVSS	low polyreactivity
QVQLVESGVGLVQAGGSLRLSSAASGRILRQYAMGWYRQAPGKERELVAAITSSGGSTYYADSVKGRFTISRDNAKNTVYLQMNSLKPEDTAVYYCNARLRGAKYDYWGQGTQVTVSS	high polyreactivity
QVQLVESGGGLVQAGGSLRLSCAASGIIFQRNDMGWYRQAHGKERELVANIRDGGITYADSVKGRFTISRDNAKNTVYLKMNSLKPEDTAVYYCARDDTSPGYGDQSSNASNYYWGQGTQVTVSS	low polyreactivity
QVQLVESGGGLVQAGGSLRLSSAASGRIFGRYAMGWYRQAPGKERELVDAITCTGGTTYYADSVKGRFTISRDNAKNTVYLQMNSLKPEDTAVYYCAARQGYGIYGDYYYWGQGTHVTVSS	high polyreactivity
QVQLVESGGGLVQAGGSLRLSCAASGRIFGGNAMGWYRQAPGKERELVAAITSGGTTNYADSVKGRFTISRDNAKNTVYLQMNSLKPEDTAVYYCAADFKPLYYDEYDYWGQGTQVTVSS	low polyreactivity
QVQLVESGGGLVQAGGSLRLSCAASGSTFPRNAMGWYRQAPGKERELVAAISYSGGRTYYADSVKGRFTISRDNAKNTVYLQMNSLKPEDTAVYYCAAQPYSLVRGKSYGYWGQGTQVTVSS	high polyreactivity
QVQLVESGGGLVQAGGSLRLSCAASGRIFYRYAMGWYRQAPGKERELVAAITGSGGRTYADSVKGRFTISRDNAKNTVYLQMNSLKPEDTAVYYCNDRSFCPTESRYDYWGQGTQVTVSS	high polyreactivity
